Source: patent publication US5621089

Biological target: casein

proteolytic activity (Casein Protease Units, CPU): 120 CPU/l
Substance: PD498 alkaline protease (protease purified from Bacillus sp. PD498, NCIMB No. 40484) (enzyme)
